According to PMC5102582 (eLife, 2016):

B1: UBXD1-N (N-terminal portion of UBXD1, residues 1-133) (domain or fragment, Mus musculus, UniProt Q99PL6 1-133, looked up)
chain: MKKFFQEIKADIKFKSAGPGQKLTDSAGEKTTKGKSPQLALRQPRQGPTDEAQMAAAAALARLEQKQPRARGPTSQDSIRNQVRKELQAEATSSNNPGAPGTNSVPEPKEEISPHLAVPGVFFICPLTGVTLR
notes: UBXD1, Mus musculus, residues 1-133 (holds H1/H2 and VIM, residues 52-63); perdeuterated; construct after Trusch et al., 2015; not shown: His6, N-terminal, cleaved
B2: full-length p47 (natural protein, Mus musculus, UniProt Q9CZ44 1-370, looked up)
chain: MAEERQDALREFVAVTGTEEDRARFFLESAGWDLQIALASFYEDGGDEDIVTISQATPSSVSRGTAPSDNRVTSFRDLIHDQDEEEEEEEGQRFYAGGSERSGQQIVGPPRKKSPNELVDDLFKGAKEHGAVAVERVTKSPGETSKPRPFAGGGYRLGAAPEEESAYVAGERRRHSGQDVHVVLKLWKTGFSLDNGDLRSYQDPSNAQFLESIRRGEVPAELRRLAHGGQVNLDMEDHRDEDFVKPKGAFKAFTGEGQKLGSTAPQVLNTSSPAQQAENEAKASSSILINEAEPTTNIQIRLADGGRLVQKFNHSHRISDIRLFIVDARPAMAATSFVLMTTFPNKELADENQTLKEANLLNAVIVQRLT
notes: p47 (NSFL1 cofactor p47), Mus musculus, full length; perdeuterated; eluted as a trimer on gel filtration; also called p47 trimer; not shown: His6, N-terminal, cleaved

Assays:
[1] = target: T1, wt ND1Lp97-ADP (p97/VCP residues 1-480: NTD, D1 and the D1-D2 linker) (Homo sapiens/Mus musculus (identical), UniProt P55072 1-480); test: NMR titration; methyl-TROSY 13C-1H HMQC chemical shift titration of ILVM-13CH3 wt ND1Lp97-ADP with perdeuterated UBXD1-N; global analysis of V68, L140, I175, I182; effective macroscopic Kd; 50°C; 25 mM HEPES pH 7.0, 50 mM NaCl, 10 mM ADP, 5 mM TCEP, D2O; a new sample for each ligand concentration; settings: both partners purified
T1 construct: p97/VCP, Homo sapiens/Mus musculus (identical), UniProt P55072 versus Q01853, residues 1-480; highly deuterated, ILVM-13CH3 methyl labelled; 320 kDa hexamer (6 x 53 kDa); also called p97 ND1L 1-480; NDL1p97-ADP; not shown: His6, N-terminal, cleaved
T1 sequence (P55072 1-480): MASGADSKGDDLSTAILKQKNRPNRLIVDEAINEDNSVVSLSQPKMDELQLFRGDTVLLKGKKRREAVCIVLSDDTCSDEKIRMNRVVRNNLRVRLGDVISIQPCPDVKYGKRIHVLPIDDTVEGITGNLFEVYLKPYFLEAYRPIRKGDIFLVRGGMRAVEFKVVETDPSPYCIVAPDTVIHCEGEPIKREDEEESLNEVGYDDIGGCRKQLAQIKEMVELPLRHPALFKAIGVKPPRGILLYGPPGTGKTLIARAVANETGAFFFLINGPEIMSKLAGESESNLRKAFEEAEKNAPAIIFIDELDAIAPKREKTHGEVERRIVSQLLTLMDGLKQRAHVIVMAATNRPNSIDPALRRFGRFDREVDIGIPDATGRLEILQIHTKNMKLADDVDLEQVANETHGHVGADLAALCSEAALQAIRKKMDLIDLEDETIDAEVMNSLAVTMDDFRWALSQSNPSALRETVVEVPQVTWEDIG

R155P ND1Lp97-ADP = target: T2, R155P ND1Lp97-ADP (Homo sapiens/Mus musculus (identical), UniProt P55072 1-480, R155P); test: NMR titration; one point: 150 µM UBXD1-N added to 50 µM (monomer) wt or mutant ND1Lp97-ADP (3:1); methyl-TROSY HMQC CSPs; Kd from the bound fraction by the V68 shift; 50°C; 25 mM HEPES pH 7.0, 50 mM NaCl, 10 mM ADP, 5 mM TCEP, D2O; settings: both partners purified
T2 construct: p97/VCP, Homo sapiens/Mus musculus (identical), residues 1-480, IBMPFD disease mutation R155P; deuterated, ILVM-13CH3 labelled; mutation found in IBMPFD patients; not shown: His6, N-terminal, cleaved
T2 sequence (P55072 1-480 R155P): as the sequence (P55072 1-480) above, with R155P counted along it

R95G ND1Lp97-ADP = target: T3, R95G ND1Lp97-ADP (Homo sapiens/Mus musculus (identical), UniProt P55072 1-480, R95G); test: as above; settings: both partners purified
T3 construct: p97/VCP, Homo sapiens/Mus musculus (identical), residues 1-480, IBMPFD disease mutation R95G; deuterated, ILVM-13CH3 labelled; mutation found in IBMPFD patients; also called R95G mutant; not shown: His6, N-terminal, cleaved
T3 sequence (P55072 1-480 R95G): as the sequence (P55072 1-480) above, with R95G counted along it

N387H ND1Lp97-ADP = target: T4, N387H ND1Lp97-ADP (Homo sapiens/Mus musculus (identical), UniProt P55072 1-480, N387H); test: as above; settings: both partners purified
T4 construct: p97/VCP, Homo sapiens/Mus musculus (identical), residues 1-480, IBMPFD disease mutation N387H; deuterated, ILVM-13CH3 labelled; mutation found in IBMPFD patients; not shown: His6, N-terminal, cleaved
T4 sequence (P55072 1-480 N387H): as the sequence (P55072 1-480) above, with N387H counted along it

R155H ND1Lp97-ADP = target: T5, R155H ND1Lp97-ADP (Homo sapiens/Mus musculus (identical), UniProt P55072 1-480, R155H); test: as above; settings: both partners purified
T5 construct: p97/VCP, Homo sapiens/Mus musculus (identical), residues 1-480, IBMPFD disease mutation R155H; deuterated, ILVM-13CH3 labelled; mutation found in IBMPFD patients; not shown: His6, N-terminal, cleaved
T5 sequence (P55072 1-480 R155H): as the sequence (P55072 1-480) above, with R155H counted along it

[2] = target: the molecule itself; test: SEC; HiLoad 16/60 Superdex 200 gel filtration column, during purification of full-length p47

Binder	Kd [1] [µM]	Kd (R155P ND1Lp97-ADP) [µM]	Kd (R95G ND1Lp97-ADP) [µM]	Kd (N387H ND1Lp97-ADP) [µM]	Kd (R155H ND1Lp97-ADP) [µM]	stoichiometry N [2]
B1	22 ± 2	~200	~200	~80	~80	
B2						3
